Source: the supplement of paper PMC10724198
± gives the standard deviation of the averaged measurements.

Assays:
[1] = test system: Saccharomyces cerevisiae; assay: protein stability index of tFT-peptide fusion (C-terminal peptide) (PSI (0-1 scale)); higher = more stable (slower turnover)
Method: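 MPS profiling in S. cerevisiae of the tFT-X12 degron library: putative degron peptides plus stable controls, 12 aa, fused to the C-terminus of a sfGFP-mCherry timer. Cells are FACS-sorted into 8 mCherry/sfGFP bins and deep-sequenced. PSI runs from 0 (unstable) to 1 (stable). Backgrounds are wild type, das1Δ and doa10Δ at 30 °C, and wild type, das1Δ, cdc34-1 and cdc53-1 at 37 °C; 2-3 technical replicates each.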

[2] = test system: Saccharomyces cerevisiae; assay: as above; conditions: genetic background: wild type; temperature: 30 C
[3] = genetic background: cdc34-1, temperature: 37 C
[4] = genetic background: cdc53-1, temperature: 37 C
[5] = genetic background: das1 deletion, temperature: 30 C
[6] = genetic background: das1 deletion, temperature: 37 C
[7] = genetic background: doa10 deletion, temperature: 30 C
[8] = genetic background: wild type, temperature: 30 C
[9] = genetic background: wild type, temperature: 37 C
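Further: PSI is a weighted mean of sequencing reads over stability bins, variants kept only with over 10 reads, mCherry proximal and sfGFP distal, peptide attached via GGGS linker.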

Sequence	protein stability index [1, 3]	protein stability index [1, 4]	protein stability index [1, 5]	protein stability index [1, 6]	protein stability index [1, 7]	protein stability index [1, 8]	protein stability index [1, 9]	protein stability index [2]
VCRGWCVVRYIL	0.593 ± 0.015	0.699 ± 0.0099	0.574 ± 0.012	0.7226 ± 0.0024	0.173 ± 0.00096	0.18 ± 0.016	0.259 ± 0.0046	0.281 ± 0.064
VCVFNLTLVGTH	0.421 ± 0.05	0.462 ± 0.018	0.347 ± 0.027	0.449 ± 0.0089	0.358 ± 0.028	0.343 ± 0.018	0.4341 ± 0.0033	0.366 ± 0.023
VFFFFSLVNFRV	0.546 ± 0.061	0.574 ± 0.041	0.459 ± 0.042	0.606 ± 0.017	0.47 ± 0.05	0.419 ± 0.021	0.549 ± 0.03	0.486 ± 0.041
VFFLFLVFLTVV	0.198 ± 0.059	0.164 ± 0.017	0.23 ± 0.01	0.324 ± 0.018	0.222 ± 0.011	0.195 ± 0.029	0.263 ± 0.0089	0.259 ± 0.01
VFFRCVCCLSVF	0.388 ± 0.029	0.408 ± 0.042	0.327 ± 0.024	0.412 ± 0.014	0.2533 ± 0.00085	0.264 ± 0.015	0.352 ± 0.007	0.307 ± 0.026
VFFVLIFLLFLF	0.438 ± 0.025	0.448 ± 0.03	0.4 ± 0.03	0.46 ± 0.012	0.41 ± 0.0085	0.353 ± 0.05	0.469 ± 0.0008	0.421 ± 0.011
VFGSVAALRLLM	0.666 ± 0.048	0.73216 ± 0.00032	0.6508 ± 0.0024	0.7704 ± 0.003	0.193 ± 0.007	0.208 ± 0.042	0.414 ± 0.036	0.378 ± 0.095
VFLFSWYIFSVF	0.206 ± 0.0065	0.341 ± 0.071	0.234 ± 0.031	0.42493 ± 0.00033	0.1066 ± 0.00012	0.109 ± 0.03	0.169 ± 0.0034	0.184 ± 0.015
VFLRCRSLSMRV	0.475 ± 0.044	0.519 ± 0.014	0.397 ± 0.028	0.5352 ± 0.0026	0.409 ± 0.019	0.389 ± 0.013	0.529 ± 0.012	0.465 ± 0.03
VFMTLHCITIYK	0.452 ± 0.016	0.537 ± 0.068	0.379 ± 0.029	0.519 ± 0.052	0.338 ± 0.0065	0.348 ± 0.051	0.547 ± 0.0084	0.458 ± 0.0029
VFSCFLFLVVLV	0.129 ± 0.048	0.104 ± 0.011	0.205 ± 0.035	0.283 ± 0.023	0.279 ± 0.012	0.169 ± 0.019	0.2247 ± 0.0019	0.242 ± 0.0034
VFVFLFVFLFLL	0.147 ± 0.03	0.138 ± 0.041	0.214 ± 0.047	0.313 ± 0.013	0.397 ± 0.098	0.2 ± 0.038	0.253 ± 0.015	0.177 ± 0.043
VGCHISAFSDLI	0.699 ± 0.022	0.744 ± 0.043	0.66 ± 0.023	0.752 ± 0.011	0.66 ± 0.037	0.665 ± 0.032	0.7489 ± 0.0017	0.762 ± 0.017
VGFIVCFFFSFG	0.334 ± 0.049	0.456 ± 0.0062	0.325 ± 0.033	0.459 ± 0.017	0.3 ± 0.031	0.313 ± 0.026	0.453 ± 0.0084	0.432 ± 0.02
VGIVWELGCWMG	0.365 ± 0.052	0.49 ± 0.03	0.325 ± 0.023	0.543 ± 0.023	0.2794 ± 0.00095	0.303 ± 0.021	0.508 ± 0.0067	0.425 ± 0.019
VGTGVGEGGGVV	0.679 ± 0.029	0.72922 ± 0.00013	0.645 ± 0.016	0.73 ± 0.011	0.654 ± 0.018	0.649 ± 0.013	0.719 ± 0.022	0.711 ± 0.011
VICVVLSKVFLF	0.483 ± 0.054	0.5728 ± 0.0027	0.495 ± 0.027	0.588 ± 0.0071	0.416 ± 0.0083	0.393 ± 0.02	0.483 ± 0.013	0.444 ± 0.014
VIGFGEVWIRCV	0.358 ± 0.018	0.57 ± 0.058	0.435 ± 0.025	0.619 ± 0.023	0.0708 ± 0.013	0.0831 ± 0.01	0.0868 ± 0.013	0.141 ± 0.0034
VILYCSNVAVCS	0.355 ± 0.048	0.42 ± 0.013	0.246 ± 0.019	0.4263 ± 0.0013	0.212 ± 0.004	0.248 ± 0.023	0.399 ± 0.011	0.294 ± 0.0038
